To fix the notation:
B1: Gamma-crystallin D, P07320 (parent)
chain: MGKITLYEDRGFQGRHYECSSDHPNLQPYLSRCNSARVDSGCWMLYEQPNYSGLQYFLRRGDYADHQQWMGLSDSVRSCRLIPHSGSHRIRLYEREDYRGQMIEFTEDCSCLQDRFRFNEIHSLNVLEGSWVLYELSNYRGRQYLLMPGDYRRYQDWGATNARVGSLRRVIDFS

The variants in this series derive from B1. The settings on record: Homo sapiens; pH 7; 37 °C; GdnHCl; Fluorescence; Sodium phosphate 10 mM; transition: 3; structure 1HK0; whole UniProt chain shown.

Several values for one entry are separate records, joined by “and”; a condition that tells them apart may be missing. Identical values can stand only once.

Take V132A: the “ddG of mutation (higher = less stable)” value was 11.3 kJ/mol and 4.6 kJ/mol; the denaturant m value is 3.7 kcal/mol/M and 3.1 kcal/mol/M; the “denaturant midpoint (higher = more stable)” value (shortened to “denaturant midpoint”) is 1.3 M and 2.5 M; the unfolding free energy is 20.9 kJ/mol and 32.6 kJ/mol.

In the case of I82A, the denaturant m value is 3.7 kcal/mol/M and 3 kcal/mol/M; the “denaturant midpoint” value was 1.5 M and 2.9 M; the unfolding free energy was 22.2 kJ/mol and 36.4 kJ/mol.

Regarding L145A, the “ddG of mutation (higher = less stable)” value is 5.02 kJ/mol and 5.86 kJ/mol; the denaturant m value was 3.9 kcal/mol/M and 2.9 kcal/mol/M; the “denaturant midpoint” value was 1.6 M and 2.6 M; the unfolding free energy is 27.2 kJ/mol and 31.4 kJ/mol.

For F57A, the denaturant m value is 3.9 kcal/mol/M and 3.2 kcal/mol/M; the “denaturant midpoint” value is 1.6 M and 2.9 M; the unfolding free energy was 25.5 kJ/mol and 38.9 kJ/mol.

Take M44A: the denaturant m value is 3.7 kcal/mol/M and 2.8 kcal/mol/M; the “denaturant midpoint” value was 2.2 M and 2.9 M; the unfolding free energy was 32.2 kJ/mol and 33.9 kJ/mol.

For the variant V170A, the “ddG of mutation (higher = less stable)” value was -5.44 kJ/mol, the denaturant m value was determined as 4 kcal/mol/M, the “denaturant midpoint” value came to 2.5 M and the unfolding free energy worked out at 42.7 kJ/mol.

The values above are taken from FireProtDB (doi:10.1110/ps.041111405).
